B1: Tryptophan synthase alpha chain, P0A877 (parent)
chain: MERYESLFAQLKERKEGAFVPFVTLGDPGIEQSLKIIDTLIEAGADALELGIPFSDPLADGPTIQNATLRAFAAGVTPAQCFEMLALIRQKHPTIPIGLLMYANLVFNKGIDEFYAQCEKVGVDSVLVADVPVEESAPFRQAALRHNVAPIFICPPNADDDLLRQIASYGRGYTYLLSRAGVTGAENRAALPLNHLVAKLKEYNAAPPLQGFGISAPDQVKAAIDAGAAGAISGSAIVKIIEQHINEPEKMLAALKVFVQPMKAATRS

The variants in this data set derive from B1. The conditions noted are these: Escherichia coli (strain K12); pH 7.8; 25 °C; Urea; CD; potassium phosphate 10 mM; transition: 3; structure 1WQ5; whole UniProt chain shown.

Several values for one entry are separate records, joined by “and”; a condition that tells them apart may be missing. Equal entries are not always repeated.

Consider MERYESLFAQLKERKEGAFVPFVTLGDAGIEQSLKIIDTLIEAGADALELGIPFSDPLADGPTIQNATLRAFAAGVTPAQCFEMLALIRQKHPTIPIGLLMYANLVFNKGIDEFYAQCEKVGVDSVLVADVPVEESAPFRQAALRHNVAPIFICPPNADDDLLRQIASYGRGYTYLLSRAGVTGAENRAALPLNHLVAKLKEYNAAPPLQGFGISAPDQVKAAIDAGAAGAISGSAIVKIIEQHINEPEKMLAALKVFVQPMKAATRS [P28A], for which the denaturant m value is 1.48 kcal/mol/M and 1.04 kcal/mol/M; the “denaturant midpoint (higher = more stable)” value is 1.36 M and 3.66 M; the unfolding free energy is 2.01 kcal/mol and 3.81 kcal/mol.

For the variant MERYESLFAQLKERKEGAFVPFVTLGDGGIEQSLKIIDTLIEAGADALELGIPFSDPLADGPTIQNATLRAFAAGVTPAQCFEMLALIRQKHPTIPIGLLMYANLVFNKGIDEFYAQCEKVGVDSVLVADVPVEESAPFRQAALRHNVAPIFICPPNADDDLLRQIASYGRGYTYLLSRAGVTGAENRAALPLNHLVAKLKEYNAAPPLQGFGISAPDQVKAAIDAGAAGAISGSAIVKIIEQHINEPEKMLAALKVFVQPMKAATRS [P28G], the denaturant m value is 2.15 kcal/mol/M and 1.18 kcal/mol/M; the “denaturant midpoint (higher = more stable)” value was 2.08 M and 4.1 M; the unfolding free energy is 4.47 kcal/mol and 4.84 kcal/mol.

For the origin of these results see FireProtDB (doi:10.1016/s0022-2836(02)00737-4).
